# Data: the supplement of paper PMC9112550, “Optimization of the antimicrobial peptide Bac7 by deep mutational scanning” (BMC Biology, 2022)
# Test system: Escherichia coli TOP10
# Test: shrunken log2 fold change of peptide-encoding DNA abundance (4.5 h post-induction vs induction); higher = less antimicrobial activity (less host growth inhibition)
# Details: time post-induction: 4.5 h; library: site-saturation at positions 5, 18, 19, 20
# 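Note: peptides expressed intracellularly from a pBAD plasmid library in pooled LB shake-flask culture, induced with 0.3% L-arabinose, DNA abundance read by NGS, three biological replicates, DESeq2 with apeglm shrinkage.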
row,Sequence,shrunken log2 fold change
1,RRIRMRPPRLPRPRPRPWDQPRP,0.0532
2,RRIRCRPPRLPRPRPRPDQEPRP,0.0455
3,RRIRQRPPRLPRPRPRPNYSPRP,-0.397
4,RRIRGRPPRLPRPRPRPNPIPRP,0.0839
5,RRIRTRPPRLPRPRPRPTKFPRP,-0.638
6,RRIRQRPPRLPRPRPRPQGMPRP,0.0331
7,RRIRRRPPRLPRPRPRPPYLPRP,0.0685
8,RRIRYRPPRLPRPRPRPAGWPRP,0.366
9,RRIRARPPRLPRPRPRPMLLPRP,-0.0981
10,RRIRSRPPRLPRPRPRPCMVPRP,-0.511
11,RRIRWRPPRLPRPRPRPNILPRP,-0.402
12,RRIRPRPPRLPRPRPRPQHNPRP,-0.536
13,RRIRARPPRLPRPRPRPNAWPRP,0.44
14,RRIRDRPPRLPRPRPRPSVAPRP,0.233
15,RRIRDRPPRLPRPRPRPRVHPRP,-0.0969
16,RRIRIRPPRLPRPRPRPRTNPRP,-0.159
17,RRIRDRPPRLPRPRPRPKVQPRP,0.116
18,RRIRQRPPRLPRPRPRPDVMPRP,0.0589
19,RRIRARPPRLPRPRPRPKFPPRP,2.15
20,RRIRIRPPRLPRPRPRPASEPRP,0.149
21,RRIRVRPPRLPRPRPRPTLSPRP,-0.0525
22,RRIRYRPPRLPRPRPRPGVRPRP,0.0103
23,RRIRWRPPRLPRPRPRPPRNPRP,0.794
24,RRIRFRPPRLPRPRPRPKLEPRP,-0.0492
25,RRIRMRPPRLPRPRPRPIAHPRP,-0.0202

row,Sequence,shrunken log2 fold change
1,RRIRHRPPRLPRPRPRPYSVPRP,-0.481
2,RRIRCRPPRLPRPRPRPIWTPRP,-0.0919
3,RRIRSRPPRLPRPRPRPNTKPRP,-0.259
4,RRIRWRPPRLPRPRPRPHMKPRP,-0.204
5,RRIRDRPPRLPRPRPRPTHHPRP,0.224
6,RRIRHRPPRLPRPRPRPIFPPRP,0.033
7,RRIRPRPPRLPRPRPRPSCAPRP,0.0332
8,RRIRERPPRLPRPRPRPQSIPRP,-2.26
9,RRIRCRPPRLPRPRPRPSGSPRP,-0.125
10,RRIRIRPPRLPRPRPRPTPDPRP,-0.0173
11,RRIRPRPPRLPRPRPRPMKMPRP,-0.148
12,RRIRERPPRLPRPRPRPIFTPRP,-0.195
13,RRIRQRPPRLPRPRPRPMRCPRP,0.054
14,RRIRTRPPRLPRPRPRPASDPRP,-0.141
15,RRIRPRPPRLPRPRPRPSEPPRP,-0.213
16,RRIRKRPPRLPRPRPRPVPVPRP,0.253
17,RRIRNRPPRLPRPRPRPSLYPRP,-0.0524
18,RRIRSRPPRLPRPRPRPSIGPRP,0.347
19,RRIRYRPPRLPRPRPRPPHCPRP,-0.396
20,RRIRRRPPRLPRPRPRPPVPPRP,0.753
21,RRIRARPPRLPRPRPRPCDRPRP,-0.00133
22,RRIRARPPRLPRPRPRPWQAPRP,-0.0548
23,RRIRVRPPRLPRPRPRPLAWPRP,0.0442
24,RRIRLRPPRLPRPRPRPSPQPRP,0.362
25,RRIRKRPPRLPRPRPRPSPTPRP,-0.00658

row,Sequence,shrunken log2 fold change
1,RRIRWRPPRLPRPRPRPNQPPRP,0.198
2,RRIRGRPPRLPRPRPRPQKVPRP,0.129
3,RRIRNRPPRLPRPRPRPKIDPRP,-0.626
4,RRIRHRPPRLPRPRPRPECTPRP,0.154
5,RRIRTRPPRLPRPRPRPCPWPRP,-0.21
6,RRIRKRPPRLPRPRPRPFSGPRP,-0.172
7,RRIRSRPPRLPRPRPRPPCEPRP,-0.236
8,RRIRLRPPRLPRPRPRPNSGPRP,-0.095
9,RRIRGRPPRLPRPRPRPIRRPRP,0.346
10,RRIRYRPPRLPRPRPRPIKPPRP,-0.0229
11,RRIRFRPPRLPRPRPRPNFWPRP,0.15
12,RRIRFRPPRLPRPRPRPALAPRP,0.257
13,RRIRPRPPRLPRPRPRPKDLPRP,-0.146
14,RRIRPRPPRLPRPRPRPQYMPRP,-0.506
15,RRIRERPPRLPRPRPRPCKVPRP,-0.00382
16,RRIRQRPPRLPRPRPRPRGGPRP,0.484
17,RRIRTRPPRLPRPRPRPCSCPRP,-0.0701
18,RRIRCRPPRLPRPRPRPSSDPRP,-0.162
19,RRIRIRPPRLPRPRPRPDFPPRP,0.058
20,RRIRARPPRLPRPRPRPWYPPRP,-0.11
21,RRIRPRPPRLPRPRPRPGRNPRP,-0.0548
22,RRIRGRPPRLPRPRPRPPILPRP,-0.0529
23,RRIRMRPPRLPRPRPRPPPNPRP,1.77
24,RRIRCRPPRLPRPRPRPKIYPRP,-0.643
25,RRIRSRPPRLPRPRPRPDDAPRP,0.162

row,Sequence,shrunken log2 fold change
1,RRIRLRPPRLPRPRPRPHQPPRP,0.18
2,RRIRLRPPRLPRPRPRPDYAPRP,-0.224
3,RRIRNRPPRLPRPRPRPGLCPRP,0.685
4,RRIRERPPRLPRPRPRPSTHPRP,-0.663
5,RRIRFRPPRLPRPRPRPRITPRP,-0.657
6,RRIRPRPPRLPRPRPRPTSAPRP,0.156
7,RRIRYRPPRLPRPRPRPYLNPRP,-0.802
8,RRIRIRPPRLPRPRPRPSGNPRP,0.0322
9,RRIRWRPPRLPRPRPRPYMIPRP,-1.02
10,RRIRVRPPRLPRPRPRPWMMPRP,-0.0912
11,RRIRSRPPRLPRPRPRPPAEPRP,2.3
12,RRIRRRPPRLPRPRPRPGNGPRP,0.372
13,RRIRWRPPRLPRPRPRPIEYPRP,-0.224
14,RRIRLRPPRLPRPRPRPQYTPRP,-0.909
15,RRIRVRPPRLPRPRPRPVNAPRP,-0.0836
16,RRIRQRPPRLPRPRPRPIWSPRP,-0.514
17,RRIRHRPPRLPRPRPRPKIFPRP,-0.0798
18,RRIRTRPPRLPRPRPRPSRAPRP,0.271
19,RRIRGRPPRLPRPRPRPHGAPRP,-0.00969
20,RRIRHRPPRLPRPRPRPLMMPRP,-0.124
21,RRIRLRPPRLPRPRPRPDKCPRP,-0.0114
22,RRIRRRPPRLPRPRPRPHICPRP,-0.0887
23,RRIRWRPPRLPRPRPRPKCQPRP,0.136
24,RRIRQRPPRLPRPRPRPQHSPRP,-0.062
25,RRIRIRPPRLPRPRPRPGWDPRP,0.105

row,Sequence,shrunken log2 fold change
1,RRIRQRPPRLPRPRPRPLRDPRP,0.082
2,RRIRKRPPRLPRPRPRPNYNPRP,0.0883
3,RRIRFRPPRLPRPRPRPVTDPRP,0.00378
4,RRIRYRPPRLPRPRPRPTIAPRP,-0.338
5,RRIRLRPPRLPRPRPRPKAKPRP,0.0705
6,RRIRWRPPRLPRPRPRPWETPRP,-0.01
7,RRIRKRPPRLPRPRPRPGYEPRP,-0.0888
8,RRIRNRPPRLPRPRPRPNSRPRP,-0.266
9,RRIRQRPPRLPRPRPRPDSKPRP,-0.146
10,RRIRGRPPRLPRPRPRPMLAPRP,1.9
11,RRIRIRPPRLPRPRPRPYSHPRP,-0.941
12,RRIRIRPPRLPRPRPRPANTPRP,0.027
13,RRIRFRPPRLPRPRPRPGCGPRP,0.748
14,RRIRERPPRLPRPRPRPAIAPRP,0.0488
15,RRIRFRPPRLPRPRPRPFAFPRP,-0.239
16,RRIRQRPPRLPRPRPRPARGPRP,0.126
17,RRIRLRPPRLPRPRPRPDESPRP,0.148
18,RRIRRRPPRLPRPRPRPVGYPRP,0.02
19,RRIRWRPPRLPRPRPRPTDPPRP,0.374
20,RRIRARPPRLPRPRPRPMGLPRP,0.00193
21,RRIRIRPPRLPRPRPRPLRKPRP,0.00781
22,RRIRLRPPRLPRPRPRPWACPRP,-0.0699
23,RRIRERPPRLPRPRPRPHTNPRP,-0.466
24,RRIRKRPPRLPRPRPRPNKWPRP,-0.0156
25,RRIRFRPPRLPRPRPRPGRIPRP,0.0413
